Measurements reported in article PMC13189624, “MORC2 mediates transcriptional regulation through liquid-liquid phase separation” (eLife, 2026).

B1: wild-type MORC2 901-1032 with Trx-tag [human] / itself (parent)
chain: LSTNHETIDLLVQILRNCLRYFLPPSFPISKKQLSAMNSDELISFPLKEYFKQYEVGLQNLCNSYQSRADSRAKASEESLRTSERKLRETEEKLQKLRTNIVALLQKVQEDIDINTDDELDAYIEDLITKGD

Variants of: B1
Assay: static light-scattering (SLS) coupled to size-exclusion chromatography
Settings: with itself; Trx tag (14 kDa) kept on constructs

molecular mass	Variant
79.8 kDa	LSTNHETIDLQVQILRNCLRYFLPPSFPISKKQLSAMNSDELISFPLKEYFKQYEVGLQNLCNSYQSRADSRAKASEESLRTSERKLRETEEKLQKLRTNIVALLQKVQEDIDINTDDELDAYIEDLITKGD [chain 1 L11Q]
113 kDa	LSTNHETIDLLVQILRNCLRYQLPPSFPISKKQLSAMNSDELISFPLKEYFKQYEVGLQNLCNSYQSRADSRAKASEESLRTSERKLRETEEKLQKLRTNIVALLQKVQEDIDINTDDELDAYIEDLITKGD [chain 1 F22Q]
